{
  "source": "paper PMC9253114",
  "about": "“Structures and gating mechanisms of human bestrophin anion channels” (Nature Communications, 2022)",
  "proteins": {"B1": {"name": "bBest2_(1–345) (domain or fragment, bovine, UniProt E1BF86 1-345, looked up)", "chain": "MTVTYTARVAKARFGGFSKLLLLWRGSIYKLLWRELLCFLGLFMALSAAYRFVLTEEQKRYFEKLVLYCDRYASLIPVSFVLGFYVTLVVHRWWNQYLSMPLTDALMCVVVGTVHGHDERGRLYRRTLMRYAGLSGVLILRSVSTAVFKRFPTIDHVVEAGFMTREERKKFENLNSSYNKYWVPCVWFCNLAAQARREGRIRDNGAFKLLLEELNVFRSKCGMLFHYDWISVPLVYTQVVTIAVYSYFLACLIGRQFLDPAQGYKDHDLDLCVPIFTLLQFFFYAGWLKVAEQLINPFGEDDDDFETNFLIDRCFQVSMLAVDEMYDDLAMLEKDLYWDAAEARA", "notes": "PDB 6VX7 is the cited earlier bBest2 structure, another construct; also called bBEST2 345; AS truncated bovine Best2; source: HEK293-F cells, Bacmam system, purified (GDN extraction, Ni-NTA, TEV cleavage, gel filtration)"}, "B2": {"name": "wild-type human bestrophin-1 (natural protein)", "chain": "MTITYTSQVANARLGSFSRLLLCWRGSIYKLLYGEFLIFLLCYYIIRFIYRLALTEEQQLMFEKLTLYCDSYIQLIPISFVLGFYVTLVVTRWWNQYENLPWPDRLMSLVSGFVEGKDEQGRLLRRTLIRYANLGNVLILRSVSTAVYKRFPSAQHLVQAGFMTPAEHKQLEKLSLPHNMFWVPWVWFANLSMKAWLGGRIRDPILLQSLLNEMNTLRTQCGHLYAYDWISIPLVYTQVVTVAVYSFFLTCLVGRQFLNPAKAYPGHELDLVVPVFTFLQFFFYVGWLKVAEQLINPFGEDDDDFETNWIVDRNLQVSLLAVDEMHQDLPRMEPDMYWNKPEPQPPYTAASAQFRRASFMGSTFNISLNKEEMEFQPNQEDEEDAHAGIIGRFLGLQSHDHHPPRANSRTKLLWPKRESLLHEGLPKNHKAAKQNVRGQEDNKAWKLKAVDAFKSAPLYQRPGYYSAPQTPLSPTPMFFPLEPSAPSKLHSVTGIDTKDKSLKTVSSGAKKSFELLSESDGALMEHPEVSQVRRKTVEFNLTDMPEIPENHLKEPLEQSPTNIHTTLKDHMDPYWALENRDEAHS", "notes": "human bestrophin-1 (hBest1), wild type; also called hBest1; WT hBest1; source: HEK293-F cells, Bacmam system, purified (GDN extraction, Ni-NTA, TEV cleavage, gel filtration)"}, "B3": {"name": "hBest1_(1–345) (domain or fragment, human, UniProt O76090 1-345, looked up)", "chain": "MTITYTSQVANARLGSFSRLLLCWRGSIYKLLYGEFLIFLLCYYIIRFIYRLALTEEQQLMFEKLTLYCDSYIQLIPISFVLGFYVTLVVTRWWNQYENLPWPDRLMSLVSGFVEGKDEQGRLLRRTLIRYANLGNVLILRSVSTAVYKRFPSAQHLVQAGFMTPAEHKQLEKLSLPHNMFWVPWVWFANLSMKAWLGGRIRDPILLQSLLNEMNTLRTQCGHLYAYDWISIPLVYTQVVTVAVYSFFLTCLVGRQFLNPAKAYPGHELDLVVPVFTFLQFFFYVGWLKVAEQLINPFGEDDDDFETNWIVDRNLQVSLLAVDEMHQDLPRMEPDMYWNKPEPQP", "notes": "also called hBEST1 345; AS truncated hBest1; source: HEK293-F cells, Bacmam system, purified (GDN extraction, Ni-NTA, TEV cleavage, gel filtration)"}, "B4": {"name": "wild-type human bestrophin-2 (natural protein, UniProt Q8NFU1 1-509, looked up)", "chain": "MTVTYTARVANARFGGFSQLLLLWRGSIYKLLWRELLCFLGFYMALSAAYRFVLTEGQKRYFEKLVIYCDQYASLIPVSFVLGFYVTLVVNRWWSQYLCMPLPDALMCVVAGTVHGRDDRGRLYRRTLMRYAGLSAVLILRSVSTAVFKRFPTIDHVVEAGFMTREERKKFENLNSSYNKYWVPCVWFSNLAAQARREGRIRDNSALKLLLEELNVFRGKCGMLFHYDWISVPLVYTQVVTIALYSYFLACLIGRQFLDPAQGYKDHDLDLCVPIFTLLQFFFYAGWLKVAEQLINPFGEDDDDFETNFLIDRNFQVSMLAVDEMYDDLAVLEKDLYWDAAEARAPYTAATVFQLRQPSFQGSTFDITLAKEDMQFQRLDGLDGPMGEAPGDFLQRLLPAGAGMVAGGPLGRRLSFLLRKNSCVSEASTGASCSCAVVPEGAAPECSCGDPLLDPGLPEPEAPPPAGPEPLTLIPGPVEPFSIVTMPGPRGPAPPWLPSPIGEEEENLA", "notes": "human bestrophin-2 (hBest2), wild type; also called hBest2; WT hBest2; source: HEK293-F cells, Bacmam system, purified (GDN extraction, Ni-NTA, TEV cleavage, gel filtration)"}},
  "key": {"[1]": {"biological_target": "the molecule itself", "test": "cryo-EM structure; single-particle cryo-EM of purified truncated channel (residues 1-345) in GDN, in the presence of 5 mM Ca2+; C5 symmetry refinement"}, "[2]": {"biological_target": "the molecule itself", "test": "cryo-EM structure; single-particle cryo-EM of purified channel in GDN (200 mM NaCl, 40 mM HEPES pH 7.8, 0.005% GDN); without Ca2+ (EGTA) or after a 30 s spike of 1 uM or 5 mM Ca2+; C5 symmetry refinement"}},
  "data": [
    {"protein": "B1", "values": [
      {"measurement": "binding result", "setting": "[1]", "result": "binds"}
    ]},
    {"protein": "B2", "values": [
      {"measurement": "stoichiometry N", "setting": "[2]", "result": 5}
    ]},
    {"protein": "B3", "values": [
      {"measurement": "binding result", "setting": "[1]", "result": "binds"}
    ]},
    {"protein": "B4", "values": [
      {"measurement": "stoichiometry N", "setting": "[2]", "result": 5}
    ]}
  ]
}
